B1: Partitioning defective 3 homolog (Homo sapiens), Q8TEW0 (parent)
chain: MKVTVCFGRTRVVVPCGDGHMKVFSLIQQAVTRYRKAIAKDPNYWIQVHRLEHGDGGILDLDDILCDVADDKDRLVAVFDEQDPHHGGDGTSASSTGTQSPEIFGSELGTNNVSAFQPYQATSEIEVTPSVLRANMPLHVRRSSDPALIGLSTSVSDSNFSSEEPSRKNPTRWSTTAGFLKQNTAGSPKTCDRKKDENYRSLPRDTSNWSNQFQRDNARSSLSASHPMVGKWLEKQEQDEDGTEEDNSRVEPVGHADTGLEHIPNFSLDDMVKLVEVPNDGGPLGIHVVPFSARGGRTLGLLVKRLEKGGKAEHENLFRENDCIVRINDGDLRNRRFEQAQHMFRQAMRTPIIWFHVVPAANKEQYEQLSQSEKNNYYSSRFSPDSQYIDNRSVNSAGLHTVQRAPRLNHPPEQIDSHSRLPHSAHPSGKPPSAPASAPQNVFSTTVSSGYNTKKIGKRLNIQLKKGTEGLGFSITSRDVTIGGSAPIYVKNILPRGAAIQDGRLKAGDRLIEVNGVDLVGKSQEEVVSLLRSTKMEGTVSLLVFRQEDAFHPRELNAEPSQMQIPKETKAEDEDIVLTPDGTREFLTFEVPLNDSGSAGLGVSVKGNRSKENHADLGIFVKSIINGGAASKDGRLRVNDQLIAVNGESLLGKTNQDAMETLRRSMSTEGNKRGMIQLIVARRISKCNELKSPGSPPGPELPIETALDDRERRISHSLYSGIEGLDESPSRNAALSRIMGESGKYQLSPTVNMPQDDTVIIEDDRLPVLPPHLSDQSSSSSHDDVGFVTADAGTWAKAAISDSADCSLSPDVDPVLAFQREGFGRQSMSEKRTKQFSDASQLDFVKTRKSKSMDLGIADETKLNTVDDQKAGSPSRDVGPSLGLKKSSSLESLQTAVAEVTLNGDIPFHRPRPRIIRGRGCNESFRAAIDKSYDKPAVDDDDEGMETLEEDTEESSRSGRESVSTASDQPSHSLERQMNGNQEKGDKTDRKKDKTGKEKKKDRDKEKDKMKAKKGMLKGLGDMFRFGKHRKDDKIEKTGKIKIQESFTSEEERIRMKQEQERIQAKTREFRERQARERDYAEIQDFHRTFGCDDELMYGGVSSYEGSMALNARPQSPREGHMMDALYAQVKKPRNSKPSPVDSNRSTPSNHDRIQRLRQEFQQAKQDEDVEDRRRTYSFEQPWPNARPATQSGRHSVSVEVQMQRQRQEERESSQQAQRQYSSLPRQSRKNASSVSQDSWEQNYSPGEGFQSAKENPRYSSYQGSRNGYLGGHGFNARVMLETQELLRQEQRRKEQQMKKQPPSEGPSNYDSYKKVQDPSYAPPKGPFRQDVPPSPSQVARLNRLQTPEKGRPFYS

Variants of: B1
Conditions: with csk_human CSK

Variant | effect of a mutation on the interaction
Y1127F | disrupting interaction

Reference: IntAct's records for PubMed 17053785
